Measured values published in article PMC12127727, “Double the Double: Revisiting BCL11B's Multimerization” (Proteins, 2025).
Changes are numbered by the printed parent chain. Names may count otherwise.

B1: BCL11B_(42–220) WT (domain or fragment, human, UniProt Q9C0K0 42-220, looked up)
chain: SGLGLMVGGPDPDLLTCGQCQMNFPLGDILVFIEHKRKQCGGSLGACYDKALDKDSPPPSSRSELRKVSEPVEIGIQVTPDEDDHLLSPTKGICPKQENIAGPCRPAQLPAVAPIAASSHPHSSVITSPLRALGALPPCLPLPCCSARPVSGDGTQGEGQTEAPFGCQCQLSGKDEPSS
notes: BCL11B, human, residues 42-220: ZF0 extended up until the first C2H2 zinc finger domain (ZF1); source: E. coli, recombinantly expressed, purified
B2: BCL11B_(42–426) WT (domain or fragment, human, UniProt Q9C0K0 42-426, looked up)
chain: SGLGLMVGGPDPDLLTCGQCQMNFPLGDILVFIEHKRKQCGGSLGACYDKALDKDSPPPSSRSELRKVSEPVEIGIQVTPDEDDHLLSPTKGICPKQENIAGPCRPAQLPAVAPIAASSHPHSSVITSPLRALGALPPCLPLPCCSARPVSGDGTQGEGQTEAPFGCQCQLSGKDEPSSYICTTCKQPFNSAWFLLQHAQNTHGFRIYLEPGPASSSLTPRLTIPPPLGPEAVAQSPLMNFLGDSNPFNLLRMTGPILRDHPGFGEGRLPGTPPLFSPPPRHHLDPHRLSAEEMGLVAQHPSAFDRVMRLNPMAIDSPAMDFSRRLRELAGNSSTPPPVSPGRGNPMHRLLNPFQPSPKSPFLSTPPLPPMPPGGTPPPQPPAKS
notes: source: E. coli, recombinantly expressed, purified
B3: BCL11B_(42–94) WT (N-terminal wild-type zinc finger domain, ZF0) (domain or fragment, human, UniProt Q9C0K0 42-94, looked up)
chain: SGLGLMVGGPDPDLLTCGQCQMNFPLGDILVFIEHKRKQCGGSLGACYDKALD
notes: B Cell Lymphoma/Leukemia 11B (BCL11B), human, residues 42-94, atypical CCHC zinc finger domain ZF0; source: E. coli, recombinantly expressed, purified
B4: BCL11B_(42–94) K77A (domain or fragment, human, UniProt Q9C0K0 42-94, looked up)
chain: B3 chain with K36A
notes: BCL11B, human, residues 42-94 (ZF0) with K77A; also called lysine mutant K77A; source: E. coli, recombinantly expressed, purified
B5: BCL11B_(42–94) I70A (domain or fragment, human, UniProt Q9C0K0 42-94, looked up)
chain: B3 chain with I29A
notes: BCL11B, human, residues 42-94 (ZF0) with I70A; CD spectra indicate an incomplete zinc finger fold; source: E. coli, recombinantly expressed, purified
B6: BCL11B_(42–94) L71A/V72A (domain or fragment, human, UniProt Q9C0K0 42-94, looked up)
chain: B3 chain with L30A, V31A
notes: BCL11B, human, residues 42-94 (ZF0) with L71A and V72A; also called double mutant L71A/V72A; source: E. coli, recombinantly expressed, purified
B7: BCL11B_(42–94) C81H (domain or fragment, human, UniProt Q9C0K0 42-94, looked up)
chain: B3 chain with C40H
notes: BCL11B, human, residues 42-94 (ZF0) with C81H, which turns the CCHC zinc finger into a C2H2 zinc finger; also called zinc finger mutant C81H; source: E. coli, recombinantly expressed, purified
B8: BCL11B_(42–94) I74A (domain or fragment, human, UniProt Q9C0K0 42-94, looked up)
chain: B3 chain with I33A
notes: BCL11B, human, residues 42-94 (ZF0) with I74A; CD spectra indicate an incomplete zinc finger fold; source: E. coli, recombinantly expressed, purified

Target: the molecule itself
Assay: SEC; analytical size exclusion chromatography of the purified recombinant constructs; stoichiometric factors calculated from elution volumes with a calibration curve (Figure S1); rough estimate of molecular weights

**Q.** Which “stoichiometry N” value does the source give for B1 here?
**A.** The value was 16.6.

**Q.** B2 was tested. Which “stoichiometry N” value did it give?
**A.** The value was 4.

**Q.** Which “stoichiometry N” value does the source give for B3 here?
**A.** Its value is 7.

Target: the molecule itself
Assay: cross-linking; constructs incubated with BS(PEG)5 (bis-succinimide ester-activated PEG, 21.7 Å), then reducing 16% tricine SDS-PAGE of crosslinked and control samples

**Q.** B3 was tested. Which “stoichiometry N” value did it give?
**A.** The value was 4.

**Q.** With B4 as the protein, how does the “stoichiometry N” value read?
**A.** Its value is 2.

**Q.** Which “stoichiometry N” value does the source give for B5 here?
**A.** The value was 2.

**Q.** With B6 as the protein, how does the “stoichiometry N” value read?
**A.** Its value is 4.

**Q.** For B7, which “stoichiometry N” value is on record?
**A.** The value was 4.

**Q.** How did the “stoichiometry N” value turn out when B8 was run?
**A.** Its value is 2.
